{
  "source": "paper PMC3295763",
  "about": "(PLoS ONE, 2012)",
  "binders": {"B1": {"name": "sdAb A1 (VHH)", "VHH": "DVQLQASGGGLVQAGGSLELSCVVVGESIIDYQMAWFRQMVGREREFVAAITGDSHYSDYSASASGRFTISRDNAKKTVSLQMNHLKPEDTALYYCAARKGFGINRLSTAFDYWGHGTQVTVSS", "notes": "source: E. coli Rosetta, periplasmic (pECAN45), purified (IMAC, Superdex 75)"}, "B2": {"name": "sdAb C7 (VHH)", "VHH": "EVQLQASGGGLVQPGGSLNLSCAASGEILSFNSMGWYRQAPGKQCELVAVILSGFSPNYADSVKGRFTISRDGAKNTVFLRMNRLKPEDTADYYCAARFYGAIRDEQSVNYWGQGTRVTVSS", "notes": "as for B1"}, "B3": {"name": "sdAb G10 (VHH)", "VHH": "DVQLQASGGGLVQPGGSLKLSCVASGSTFSPDMMRWYRQAPGKQRDLVAWISTSGFTMYADSVKGRFTISRDNAKNTVYLQMNSLKPEDAAVYYCNANRFSGPDYWGQGMQVSVSS", "notes": "as for B1"}, "B4": {"name": "sdAb B2 (VHH)", "VHH": "EVQLQASGGGLVQAGGSLRLSCAASGHINIHYAMGWFRRAPGKEREFVAAVTWSGASTYYADSVKGRFTISRDNGGNTMFLQLDSLKPEDTATYYCAAQGALGRLTSASGYDYWGQGTQVTVSS", "notes": "as for B1"}, "B5": {"name": "sdAb B12 (VHH)", "VHH": "DVQLQASGGGLAQPGGSLRLSCVASGSVSRLSRMGWYRQAPGKQRELVAYIWHDGDNSYMDSVKGRFTISRDNARDTAYLQMNSLKPEDTAVYYCNYYRVGSGDSWGQGIQVIVSS", "notes": "as for B1"}},
  "data": [
    {"biological_target": "S-layer protein EA1 (Bacillus anthracis Sterne, UniProt P94217)", "assay": "SPR; […] (5 µg/ml in 10 mM sodium acetate pH 4.0); […], dissociation 10 min; […]", "details": "both partners purified", "units": {"Kd": "nM", "koff": "s⁻¹", "kon": "M⁻¹ s⁻¹"}, "values": [
      {"binder": "B1", "Kd": 0.305, "koff": 0.000233, "kon": 766000},
      {"binder": "B2", "Kd": 1.57, "koff": 0.000248, "kon": 158000},
      {"binder": "B3", "Kd": 2.04, "koff": 0.000166, "kon": 81100},
      {"binder": "B4", "Kd": 6.17, "koff": 0.00037, "kon": 60000},
      {"binder": "B5", "Kd": 6.18, "koff": 0.0015, "kon": 242000}
    ]}
  ]
}
